# Experiment: soluble on expression in E. coli; label from the status in PepcDB or PDB records
row,Sequence,soluble on expression in E. coli
1,MRILWILPYSPWPTTSGGKTRQYHLLRSLAARGHRITVLLHSKQPVSAEDRQALEPFLERLVVLPRRPLRSLSTLLAALFAPYPLLASVNGLSAELQRTATELLREPWDVVQVEHSYSFQPYERPLRDAGQPFVLTEHNVESSLGAATYDRLPGWALPFVRYDQWRYRRWERRVMSQAAAVVAVTEKDARQLGAMLGRPVPVVVNGVDCEHFATARPTPEAQRVLFLGNYEYAPNVDAVEWMLDEILPRVWAHCPEARMSVCGYALPAEWAQRWSDPRIEWQGFVPDLLQLQSSSSVFLAALRHGGGSKLKVLEALAAGLPLASTAQGVSGLELRDGEDYLGGESAEQLANAVVRLLQDPAQARALGENGRAYVRRAHDWSVAASQLEQVYAGLAEGAPACA,not soluble
2,MRITLIVLAALSFACTSCWFETGPDRFIYQLSWFCAESSCERGDDLNQFNRAETYGTDFAMSSTSASDLATSATIVVSATLGRDCRLVLDLVLFGHELDESILCFTPNGFELTVTIPDEDPETSSTWVVMAREL,not soluble
3,MRIVAPVMPRHFDEAQAIDISKYEDVNLIEWRADFLPKDEIVAVAPAIFEKFAGKEIIFTLRTVQEGGNITLSSQEYVDIIKEINAIYNPDYIDFEYFTHKSVFQEMLDFPNLILSYHNFEETPENLMEAFSEMTKLAPRVVKIAVMPQSEQDVLDLMNYTRGFKTLNPEQEFATISMGKLGRLSRFAGDVIGSSWTYVSLDHVSGPGQVTLNDMKRIIEVLEMDISN,soluble
4,MRKEVEQLALMGAMPDETDEPTDVLIDKYADLLGKITKPITLDEAHILIKLFPPTALYGIEWTLLHLIESVYPETEFIKYKELINECNSVEFREMLVQRLNNSQQNKVTNK,not soluble
5,MRKIKLIAVVGPTAVGKTALGIELAKTFNGEIISGDSQQVYQKLDIGTAKASKEEQEQAYHHLIDVREVNENYSVYDFVKEAKVAIDTIISKGKIPIIVGGTGLYLQSLFEGYHLGGEVNQETLMAYREKLESLSDEDLFEKLTEQSIIIPQVNRRRAIRALELAKFGNDLQNSESPYDVLLIGLNDDRQVLYDRINRRVDLMMDNGLLDEAKWLYDNYPSVQASKGIGYKELFPYFSKQIPLEEAVDKLKQNTRRFAKRQLTWFRNRMNVEFIMVGEENYQQKIKRKVSDFLSSKLEHHHHHH,soluble
6,MRKSLEIGKCVVLEVLTPRGTNLGRFMEFTEEAWKTGIDAFTVTDMPMGRVRMAPWAASHLLVESGKDVLMHFTRNTRNMIRIQSDLLGCHALGVKNLLLLSGDNPSHGDYPETTSVNDIDILDLIRLTKLMNEGTDLAGNKIYGKTDFFVGGALNPFSDKDIKRAKQKIEAGVDFLVTQPLFNSEVAKKIKEELNTKILASIVFFENAKQMSYFSSVPGIEIPDEIVNSTEKGDDYLKEKSFESVLRFVEETKGVLDGFYIVAIVKDLEKIRKVVEIAKS,not soluble
7,MRKTWLSLLLLFILALSACGNAADDQKNNSASPKEKKPETITYQSENGPVEVPADPKRVVVLSTFAGHVLALDVPIVGVDSWSKMSPLFQEKLKDAEVVTDEDIEKIMALKPDLIIGLSNTKKVDKLSKIAPTVTFTYGKVDYLTQFLEIGKLLNKEKEAKAWIDDFKQRAQQAGEEIRAKIGENATVTVAENFDKQLYVFGNNWARGTEILYQEMKLKMPKAVEEQALKPGYYAVSLEALPQFVGDYLILSKNGDGDTSFMETNTFKNIPAVKNGHMFVADAKAFYFNDPITLDYQLDFFKKHFLGQ,not soluble
8,MRKVETTKAPQAIGPYSQGIIVNNMFYSSGQIPLTPEGELVKGDIQAQTHQVFQNLKAVLEAAGASLDTVVKTTVFLKNMDDFAAMNEVYSQYFPNHKPARSCVEVARLPKDVLVEIEVVALVP,soluble
9,MRLASMGEEDSTPGRRSKAYSRQGADVRPMKGGHGINLVGTLMAATERGANIVEGVVDFRPTDLRGSLRRGREANLIVFVVDTSGSMAARSRVRAVTGTITSMLNDAYQRRDKVAVIAVNGNKPTLVLNPTNSVEQAQQKLKDMPMGGRTPLAEGLLMAKDLMARELRKEPGRRAILMVMTDGQDTSDAGEAGIATAAETVVKSRLSGNVVIDCEGRLKVRKERAGVLAEMLGGVCVRLRDLNSEHIKMVINA,not soluble
10,MRLCDRDIEAWLDEGRLSINPRPPVERINGATVDVRLGNKFRTFRGHTAAFIDLSGPKDEVSAALDRVMSDEIVLDEGEAFYLHPGELALAVTLESVTLPADLVGWLDGRSSLARLGLMVHVTAHRIDPGWSGCIVLAFYNSGKLPLALRPGMLIGALSFEPLSGPAVRPYNRREDAKYRNQQGAVASRIDKD,soluble
11,MRLCGLLIFLSYIVYVDNAVTANFISDPRSMFPKMVRTKNAFHFLQYFMGTFRRMFRNKTEMIEHFNYYDDQVKGTDCHIQEELDFARFKSYFDRYTRTHYNPEIRIIFAIMTKDSSHMTVEFHVTSQSWFGFEDHFHMIIRAVNDENVGWGVRYLSMAFNC,not soluble
12,MRLDHLRLQNFRCYEDAHFDFQPGFNLVVGVNGSGKTSLLLGVAECLIPYGNAMGQGQEILSKEDVRFVIDRHEGRSRFERKFPVFIRADGDIFDLPNWRAVRLLEPWEGGVDPSSLSHLSAVLARNNAGEQIDFPVLAFYRANRRWSSARISAEFAAQQRTSRFDGYANWFDAVADLRDFESWLIARTLERLQDRLDSTPTVEREDELEWVNRAIRLAIPDAHDLRYDLRLQSLLVDMGEGNAVPFHELSDGQRSLIALIADIARRMCVLNPHIGKDVLANTGGIVIIDELDIHLHPAWQRNIAPTLKKAFPKVQFIATSHSPQVIGSLQPGEVILLKNGDSSHPRATYGLDSSTILEEVMGVPQREPEIEVLLDELFSTLENNELEKARLQLDALKKKAPDLPEFAGAEALLKRKELIGRLEHHHHHH,soluble
13,MRLFHELLGPLELPDRFSRIVSLAPNLTDALFALGLGERLVGRSAFCHRPAPVLALPVVASYTKTRLELLRSLKPDLVLLSTGVQREQALRLKEEGFPVYAVPLPTSPYGILENLSTLGHLLDLEERAVALAHELSGRYAALRGRFDLRVYFEMDLGGPITVGRGSYIAQALLHMGLKPIFLDVPQAYFAPDLEEVRRRAPDLFLYEPKPWGKNPLEKARALARERGWDFPVAATDGDELAHYGPMFFGFLEKLARRVEETLGQA,soluble
14,MRLFKRYTPSMIAKHISRLFKGRIYIYGVGRFEFDNGKLILPEKAEQRHFRAVKEINQEIMKLRCAYALEHHHHHH,not soluble
15,MRLISKPVLCNYYVTYRCNATCGFCDIWEKPSPYVTPEAVEQNMRDLKKLGVKVIDFTGGEPLLHREMDTLLRIAKKYGMITTLTTNALLYPKWAERLKGLIDMLHFSLDSPDKAEHDTLRGVACFDFVLESIEKAKALGERPDIIFTVFNHNIHLIKRMYEEICLPNNLILILNPSFEYNQVEVGTGLQKKELDILSYWAKQKNIYINEAFIQLRLDGGNHTADPVCKAASSTLVISPENKLVLPCYHLGTDSFQIENNLFDLYHSKEVRAIIAQEGKLDACEGCTINCYMQPSFAVEINKYWFKAMPSTLKYSREKGTWKQLFR,not soluble
16,MRLKLTHINHISHKIANDFIHSKLLELKAPRELLCELIEGILEKSVKKENAIDEQARELLEENTDEIEFMRMDERQLFWMIKRQIAQKEGFHLFWEERCNDLSHQILNKILDEDLIMFSVSENLIRNLIYKSIDTYSKAYESIENEVHEKIKHYKRKLPVGSDEYELVFERLYEEELRRKGFL,not soluble
17,MRLLILGGTGDAAELSAKVATIPGIEAIASLAGRTREPSLPSGNVRVGGFGGAAGLADYLRQMQVDVLIDATHPFAAQISENAALAADEVEIPRLMLIRPPWVKVAGDRWIEVDTTSAAAAILKNQAKRVFLTVGRQELSAFAHLHDIWFLMRMIDPPAADALVPPGVILCDRGPFTLPQERDILIQHNIDTLVSKNSGGDATYAKIIAARELGVQVVMVNRPVVPACEQVTDADAAVAWLLEK,not soluble
18,MRLLLFRQRNFRNLALEAYRPPPGLSALVGANAQGKTSLLLGIHLALGGEVPLGLADLVRFGEEEAWLHAEVETELGAYRLEHRLGPGGREVLLNGKRVSLRTLWELPGSVLVSPLDLEAVLGPKEERRAYLDRLIARFSRRYAALLSAYEKALRQRNALLKAGGEGLSAWDRELARYGDEIVALRRRFLRRFAPILREVHAALAAKEAGLRLEETAGEGVLRALEASRAEERERGQTLVGPHRDDLVFLLEGRPAHRFASRGEAKTLALALRLAEHRLLGEHHGEPPLLLVDEWGEELDEARRRAVLAYAQALPQAILAGLEAPPGVPVCSVVRGVVLCPGA,soluble
